Assay results published in publication PMC5346689.

Experiments:
Assay in all cases: SEC; HiLoad 26/60 Superdex 75 prep grade column; buffer B (20 mM MES, 50 mM NaCl, 10 mM CaCl2, pH 7.0); oligomeric state of each purified S100A4 protein in solution
[1] = target: S100A4 N-terminal Ca2+-binding site mutant E23A/D25A (UniProt P26447)
[2] = target: S100A4 C-terminal Ca2+ binding site mutant N65I/D67A (UniProt P26447)
[3] = target: recombinant wild-type S100A4 (UniProt P26447)

For “S100A4 N-terminal Ca2+-binding site mutant E23A/D25A (from UniProt P26447 1-101) (natural protein)”, the stoichiometry N [1] was 2.
In the case of “S100A4 C-terminal Ca2+ binding site mutant N65I/D67A (from UniProt P26447 1-101) (natural protein)”, the stoichiometry N [2] is reported as 2.
With “recombinant wild-type S100A4 (from UniProt P26447 1-101) (natural protein)” the stoichiometry N [3] was 2.
